In US5985836A, “Alpha-1 proteinase inhibitor binding peptides” (Bayer Corporation, priority 1998, dated 1999):
Blank lines part the entries; values can stand above or below the substance they belong to. Ends that are not written are not given here.

Target: T1, A1PI (Homo sapiens, UniProt P01009)
T1 construct: Human plasma is currently the only approved source of therapeutic AlPI
Assay: A1PI binding on peptide-resin column, injection of 1 mg A1PI in equilibration buffer
Conditions: for Percent AlPI Eluted by Fraction, 1M NaCl / Percent AlPI Eluted by Fraction, 2% Acetic Acid / Percent AlPI Eluted by Fraction, Flowthrough: sequence order, 1 mg AlPI; for % of Total A1PI Eluted by Fraction (Based on Absorbance at 280 nm), 1M NaCl / % of Total A1PI Eluted by Fraction (Based on Absorbance at 280 nm), 2% Acetic Acid / % of Total A1PI Eluted by Fraction (Based on Absorbance at 280 nm), Flowthrough: 1 mg A1PI; for Percent A1PI Eluted by Fraction Based on Absorbance at 280 nm, 1M NaCl / Percent A1PI Eluted by Fraction Based on Absorbance at 280 nm, 2% Acetic Acid / Percent A1PI Eluted by Fraction Based on Absorbance at 280 nm, Flowthrough / Percent A1PI Eluted by Fraction, 1M NaCl / Percent A1PI Eluted by Fraction, 2% Acetic Acid / Percent A1PI Eluted by Fraction, Flowthrough: 1 mg A1PI in equilibration buffer
Method: Confirmatory binding assays were performed in a column chromatographic format on a microbore HPLC using individual peptide sequences synthesized directly onto the Toyopearl 650 M Chelate resin which had been modified with Totda followed by an alanine residue (A-Totda-Toyopearl), at a final substitution density of 0.1 mmole/g resin. The resin was packed into 0.4×5 cm columns (Thomson, Springfield, Va.) and tested on the Michrom HPLC system (Michrom BioResources, Auburn, Calif.). The elution program for all trials utilized the following method. The column was pre-equilibrated with equilibration buffer (as above). 1 ml of sample was injected and allowed sufficient time to flowthrough the column using equilibration buffer. The column was then washed with step elutions of 1M NaCl and 3M NaCl in equilibration buffer. The column was exposed to equilibration buffer with 0.1M NaCl. Any remaining protein was eluted with elution buffer (2% by volume glacial acetic acid in water).
A Gilson FC204 fraction collector at the HPLC outlet collected individual eluates for further analysis. Fractions collected from the 2% acetic acid eluates were neutralized with 2M Tris, pH 10.5 to bring the pH to neutrality. The protein samples were reconstituted in equilibration buffer unless otherwise stated. The samples were analyzed by the integration of the absorbance at 280 nm or by immunonephelometry. The specific method of determination is presented for each figure.
Tables 2 and 3 present the elution profiles for 19 sequences based on the injection of 1 mg AlPI in equilibration buffer at 4° C. and 20° C., respectively. The columns were run at a constant flow rate of865 μl/min (413 cm/hr) or 523 μl/min (250 cm/hr). No dependence of the elution profile with flow rate was found. The Percent AlPI Eluted by Fraction represents the amount eluted in the flowthrough, 1M NaCl wash, and 2% acetic acid fractions relative to the total AlPI eluted. The percentages are based on either the integration of the peak areas at […]

[1] = VIWLVR N-terminal point mutations, 4° C.

T1 sequence (P01009 25-418): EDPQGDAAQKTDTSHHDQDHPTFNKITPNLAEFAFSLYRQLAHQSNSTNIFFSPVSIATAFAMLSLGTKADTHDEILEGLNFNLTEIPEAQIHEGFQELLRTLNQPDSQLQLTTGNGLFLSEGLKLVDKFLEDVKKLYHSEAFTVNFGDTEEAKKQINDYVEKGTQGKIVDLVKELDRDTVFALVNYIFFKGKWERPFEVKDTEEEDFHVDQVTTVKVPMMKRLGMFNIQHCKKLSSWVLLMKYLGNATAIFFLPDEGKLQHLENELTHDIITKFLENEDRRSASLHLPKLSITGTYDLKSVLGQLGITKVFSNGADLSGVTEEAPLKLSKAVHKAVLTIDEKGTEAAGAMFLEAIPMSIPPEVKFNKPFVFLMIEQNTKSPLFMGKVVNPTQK

Percent AlPI Eluted by Fraction, 1M NaCl (4° C.): 11% | Percent AlPI Eluted by Fraction, 2% Acetic Acid (4° C.): 13% | Percent AlPI Eluted by Fraction, Flowthrough (4° C.): 76% | Percent AlPI Eluted by Fraction, 1M NaCl (20° C.): 31% | Percent AlPI Eluted by Fraction, 2% Acetic Acid (20° C.): 50% | Percent AlPI Eluted by Fraction, Flowthrough (20° C.): 19%
Substance: Ac-RVLFIV: N-terminal acetylated Ac-RVLFIV (listed under SEQ ID No:61)

% of Total A1PI Eluted by Fraction (Based on Absorbance at 280 nm), 1M NaCl (VIFLVR point mutations, 4° C.): 2% | % of Total A1PI Eluted by Fraction (Based on Absorbance at 280 nm), 2% Acetic Acid (VIFLVR point mutations, 4° C.): 22% | % of Total A1PI Eluted by Fraction (Based on Absorbance at 280 nm), Flowthrough (VIFLVR point mutations, 4° C.): 76% | % of Total A1PI Eluted by Fraction (Based on Absorbance at 280 nm), 1M NaCl (VIFLVR point mutations, 20° C.): 0% | % of Total A1PI Eluted by Fraction (Based on Absorbance at 280 nm), 2% Acetic Acid (VIFLVR point mutations, 20° C.): 0% | % of Total A1PI Eluted by Fraction (Based on Absorbance at 280 nm), Flowthrough (VIFLVR point mutations, 20° C.): 100%
Substance: Ac-V I F L V R: N-terminal acetylated sequence Ac-VIFLVR (listed under SEQ ID No:37) (not fully specified (C-terminus); printed as Ac-VIFLVR)

% of Total A1PI Eluted by Fraction (Based on Absorbance at 280 nm), 1M NaCl (VIFLVR point mutations, 4° C.): 6% | % of Total A1PI Eluted by Fraction (Based on Absorbance at 280 nm), 2% Acetic Acid (VIFLVR point mutations, 4° C.): 10% | % of Total A1PI Eluted by Fraction (Based on Absorbance at 280 nm), Flowthrough (VIFLVR point mutations, 4° C.): 84% | % of Total A1PI Eluted by Fraction (Based on Absorbance at 280 nm), 1M NaCl (VIFLVR point mutations, 20° C.): 9% | % of Total A1PI Eluted by Fraction (Based on Absorbance at 280 nm), 2% Acetic Acid (VIFLVR point mutations, 20° C.): 21% | % of Total A1PI Eluted by Fraction (Based on Absorbance at 280 nm), Flowthrough (VIFLVR point mutations, 20° C.): 70%
Substance: D I F L V R: point mutation of VIFLVR, position 1 (DIFLVR)

% of Total A1PI Eluted by Fraction (Based on Absorbance at 280 nm), 1M NaCl [1]: 0% | % of Total A1PI Eluted by Fraction (Based on Absorbance at 280 nm), 2% Acetic Acid [1]: 1% | % of Total A1PI Eluted by Fraction (Based on Absorbance at 280 nm), Flowthrough [1]: 99%
Substance: DDWLVR: point mutation of VIWLVR on Ala-Totda-Toyopearl (not fully specified (C-terminus))

% of Total A1PI Eluted by Fraction (Based on Absorbance at 280 nm), 1M NaCl [1]: 37% | % of Total A1PI Eluted by Fraction (Based on Absorbance at 280 nm), 2% Acetic Acid [1]: 10% | % of Total A1PI Eluted by Fraction (Based on Absorbance at 280 nm), Flowthrough [1]: 53%
Substance: DHWLVR: point mutation of VIWLVR on Ala-Totda-Toyopearl (not fully specified (C-terminus))

% of Total A1PI Eluted by Fraction (Based on Absorbance at 280 nm), 1M NaCl [1]: 9% | % of Total A1PI Eluted by Fraction (Based on Absorbance at 280 nm), 2% Acetic Acid [1]: 1% | % of Total A1PI Eluted by Fraction (Based on Absorbance at 280 nm), Flowthrough [1]: 90%
Substance: DNWLVR: point mutation of VIWLVR on Ala-Totda-Toyopearl (not fully specified (C-terminus))

% of Total A1PI Eluted by Fraction (Based on Absorbance at 280 nm), 1M NaCl [1]: 10% | % of Total A1PI Eluted by Fraction (Based on Absorbance at 280 nm), 2% Acetic Acid [1]: 0% | % of Total A1PI Eluted by Fraction (Based on Absorbance at 280 nm), Flowthrough [1]: 90%
Substance: DSWLVR: point mutation of VIWLVR on Ala-Totda-Toyopearl (not fully specified (C-terminus))

% of Total A1PI Eluted by Fraction (Based on Absorbance at 280 nm), 1M NaCl [1]: 30% | % of Total A1PI Eluted by Fraction (Based on Absorbance at 280 nm), 2% Acetic Acid [1]: 0% | % of Total A1PI Eluted by Fraction (Based on Absorbance at 280 nm), Flowthrough [1]: 70%
Substance: HDWLVR: point mutation of VIWLVR on Ala-Totda-Toyopearl (not fully specified (C-terminus))

% of Total A1PI Eluted by Fraction (Based on Absorbance at 280 nm), 1M NaCl [1]: 86% | % of Total A1PI Eluted by Fraction (Based on Absorbance at 280 nm), 2% Acetic Acid [1]: 14% | % of Total A1PI Eluted by Fraction (Based on Absorbance at 280 nm), Flowthrough [1]: 0%
Substance: HHWLVR: point mutation of VIWLVR on Ala-Totda-Toyopearl (not fully specified (C-terminus))

% of Total A1PI Eluted by Fraction (Based on Absorbance at 280 nm), 1M NaCl [1]: 92% | % of Total A1PI Eluted by Fraction (Based on Absorbance at 280 nm), 2% Acetic Acid [1]: 8% | % of Total A1PI Eluted by Fraction (Based on Absorbance at 280 nm), Flowthrough [1]: 0%
Substance: HNWLVR: point mutation of VIWLVR on Ala-Totda-Toyopearl (not fully specified (C-terminus))

% of Total A1PI Eluted by Fraction (Based on Absorbance at 280 nm), 1M NaCl [1]: 89% | % of Total A1PI Eluted by Fraction (Based on Absorbance at 280 nm), 2% Acetic Acid [1]: 11% | % of Total A1PI Eluted by Fraction (Based on Absorbance at 280 nm), Flowthrough [1]: 0%
Substance: HSWLVR: point mutation of VIWLVR on Ala-Totda-Toyopearl (not fully specified (C-terminus))

Percent A1PI Eluted by Fraction Based on Absorbance at 280 nm, 1M NaCl (4° C.): 97% | Percent A1PI Eluted by Fraction Based on Absorbance at 280 nm, 2% Acetic Acid (4° C.): 3% | Percent A1PI Eluted by Fraction Based on Absorbance at 280 nm, Flowthrough (4° C.): 0% | Percent A1PI Eluted by Fraction, 1M NaCl (20° C.): 92% | Percent A1PI Eluted by Fraction, 2% Acetic Acid (20° C.): 8% | Percent A1PI Eluted by Fraction, Flowthrough (20° C.): 0%
Substance: IIe Lys Arg Tyr Tyr Leu (IKRYYL)

Percent A1PI Eluted by Fraction Based on Absorbance at 280 nm, 1M NaCl (4° C.): 100% | Percent A1PI Eluted by Fraction Based on Absorbance at 280 nm, 2% Acetic Acid (4° C.): 0% | Percent A1PI Eluted by Fraction Based on Absorbance at 280 nm, Flowthrough (4° C.): 0% | Percent A1PI Eluted by Fraction, 1M NaCl (20° C.): 95% | Percent A1PI Eluted by Fraction, 2% Acetic Acid (20° C.): 5% | Percent A1PI Eluted by Fraction, Flowthrough (20° C.): 0%
Substance: IKRYYN
